# From patent US20240117055A1
# Tests used:
# [1] = molecular target: Recombinant Human Axl Protein Axl-tag 5 (human) (UniProt P30530); assay: competition ELISA on immobilized Axl-tag 5; unlabeled antibody 50 ug/mL; competitor Biot-v77-2a37.1 (1 ug/mL), whose signal is read
# [2] = molecular target: Recombinant Human Axl Protein Axl-tag 5 (human) (UniProt P30530); assay: competition ELISA on immobilized Axl-tag 5; unlabeled antibody 50 ug/mL; competitor Biot-M77-297b81.1.1 (1 ug/mL), whose signal is read
# [3] = molecular target: Recombinant Human Axl Protein Axl-tag 5 (human) (UniProt P30530); assay: competition ELISA on immobilized Axl-tag 5; unlabeled antibody 50 ug/mL; competitor Biot-M77-297b81.1.1 (1 ug/mL)
# [4] = molecular target: Recombinant Human Axl Protein Axl-tag 5 (human) (UniProt P30530); assay: competition ELISA on immobilized Axl-tag 5; unlabeled antibody 50 ug/mL; competitor Biot-v77-2a37.1 (1 ug/mL)
# Chain of UniProt P30530 (P30530 26-451): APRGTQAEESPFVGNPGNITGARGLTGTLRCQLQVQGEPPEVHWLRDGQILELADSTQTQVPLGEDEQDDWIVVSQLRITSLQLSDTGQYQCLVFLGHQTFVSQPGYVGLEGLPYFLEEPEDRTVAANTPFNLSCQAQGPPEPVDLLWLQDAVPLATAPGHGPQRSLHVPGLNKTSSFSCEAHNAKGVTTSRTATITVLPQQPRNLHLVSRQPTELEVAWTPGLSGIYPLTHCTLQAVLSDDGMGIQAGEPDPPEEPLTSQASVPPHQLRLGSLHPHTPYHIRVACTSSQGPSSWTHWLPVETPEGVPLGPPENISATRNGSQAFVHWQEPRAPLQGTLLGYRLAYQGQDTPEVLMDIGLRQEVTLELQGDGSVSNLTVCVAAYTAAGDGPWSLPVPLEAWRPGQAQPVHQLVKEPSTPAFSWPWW
substance,measurement,setting,value
Cell Signaling rabbit monoclonal anti-AXL antibody AXL(C89E7),OD (650 nm),[1],1.81 OD (650 nm)
same,OD (650 nm),[2],2.13 OD (650 nm)
same,% competition,[3],1.5%
same,% competition,[4],3.3%
